Experimental data as given in the supplement of paper PMC5998384.

Columns and labels:
[1] = system: HeLa Kyoto; assay: solubility in G1/S (NP-40 vs SDS abundance) (log2 ratio); higher = more soluble; conditions: cell cycle stage: G1/S
[2] = system: HeLa Kyoto; assay: melting temperature (median over replicates), in situ; higher = more thermally stable
[3] = system: HeLa Kyoto; assay: solubility change mitosis vs G1/S (difference of NP-40 vs SDS log2 ratios) (log2 ratio difference); higher = more soluble in mitosis
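Throughout, for melting temperature (median over replicates), in situ: HeLa Kyoto cells synchronized by double thymidine or nocodazole block, proteins quantified by TMT10plex mass spectrometry, three independent biological replicates.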
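Throughout, for solubility change mitosis vs G1/S (difference of NP-40 vs SDS log2 ratios): synchronized HeLa Kyoto cells (double thymidine block for G1/S, nocodazole release for mitosis), protein amounts in NP-40 versus SDS lysates quantified by mass spectrometry, three biological replicates.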
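Throughout, for solubility in G1/S (NP-40 vs SDS abundance): HeLa Kyoto cells arrested at G1/S by double thymidine block, proteins quantified by TMT10plex mass spectrometry in mild NP-40 versus SDS extracts, three biological replicates.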

| Sequence | solubility in G1/S (log2) [1] | melting temperature ([2]; cell cycle stage: G1/S) [°C] | solubility change mitosis (log2) [3] | melting temperature ([2]; cell cycle stage: mitosis) [°C] |
| --- | --- | --- | --- | --- |
| MAGAGGGGCPAGGNDFQWCFSQVKGAIDEDVAEADIISTVEFNYSGDLLATGDKGGRVVIFQREQENKSRPHSRGEYNVYSTFQSHEPEFDYLKSLEIEEKINKIRWLPQQNAAHFLLSTNDKTIKLWKISERDKRAEGYNLKDEDGRLRDPFRITALRVPILKPMDLMVEASPRRIFANAHTYHINSISVNSDHETYLSADDLRINLWHLEITDRSFNIVDIKPANMEELTEVITAAEFHPHQCNVFVYSSSKGTIRLCDMRSSALCDRHSKFFEEPEDPSSRSFFSEIISSISDVKFSHSGRYMMTRDYLSVKVWDLNMESRPVETHQVHEYLRSKLCSLYENDCIFDKFECCWNGSDSAIMTGSYNNFFRMFDRDTRRDVTLEASRESSKPRASLKPRKVCTGGKRRKDEISVDSLDFNKKILHTAWHPVDNVIAVAATNNLYIFQDKIN [PPP2R2D] | -0.162 | 53.1 | -0.168 |  |
| MAGIPGLLFLLFFLLCAVGQVSPYSAPWKPTWPAYRLPVVLPQSTLNLAKPDFGAEAKLEVSSSCGPQCHKGTPLPTYEEAKQYLSYETLYANGSRTETQVGIYILSSSGDGAQHRDSGSSGKSRRKRQIYGYDSRFSIFGKDFLLNYPFSTSVKLSTGCTGTLVAEKHVLTAAHCIHDGKTYVKGTQKLRVGFLKPKFKDGGRGANDSTSAMPEQMKFQWIRVKRTHVPKGWIKGNANDIGMDYDYALLELKKPHKRKFMKIGVSPPAKQLPGGRIHFSGYDNDRPGNLVYRFCDVKDETYDLLYQQCDAQPGASGSGVYVRMWKRQQQKWERKIIGIFSGHQWVDMNGSPQDFNVAVRITPLKYAQICYWIKGNYLDCREG [PRSS23] | -0.403 | 53.2 | 0.203 | 53.6 |
| MAGPESDAQYQFTGIKKYFNSYTLTGRMNCVLATYGSIALIVLYFKLRSKKTPAVKAT [USMG5] | -1.21 | 55 | -0.0955 | 52.6 |
| MALAGCPDSFLHHPYYQDKVEQTPRSQQDPAGPGLPAQSDRLANHQEDDVDLEALVNDMNASLESLYSACSMQSDTVPLLQNGQHARSQPRASGPPRSIQPQVSPRQRVQRSQPVHILAVRRLQEEDQQFRTSSLPAIPNPFPELCGPGSPPVLTPGSLPPSQAAAKQDVKVFSEDGTSKVVEILADMTARDLCQLLVYKSHCVDDNSWTLVEHHPHLGLERCLEDHELVVQVESTMASESKFLFRKNYAKYEFFKNPMNFFPEQMVTWCQQSNGSQTQLLQNFLNSSSCPEIQGFLHVKELGKKSWKKLYVCLRRSGLYCSTKGTSKEPRHLQLLADLEDSNIFSLIAGRKQYNAPTDHGLCIKPNKVRNETKELRLLCAEDEQTRTCWMTAFRLLKYGMLLYQNYRIPQQRKALLSPFSTPVRSVSENSLVAMDFSGQTGRVIENPAEAQSAALEEGHAWRKRSTRMNILGSQSPLHPSTLSTVIHRTQHWFHGRISREESHRIIKQQGLVDGLFLLRDSQSNPKAFVLTLCHHQKIKNFQILPCEDDGQTFFSLDDGNTKFSDLIQLVDFYQLNKGVLPCKLKHHCIRVAL [GRB10] | 0.159 | 48.1 | -0.231 | 49.1 |
| MAPERLRSRALSAFKLRGLLLRGEAIKYLTEALQSISELELEDKLEKIINAVEKQPLSSNMIERSVVEAAVQECSQSVDETIEHVFNIIGAFDIPRFVYNSERKKFLPLLMTNHPAPNLFGTPRDKAEMFRERYTILHQRTHRHELFTPPVIGSHPDESGSKFQLKTIETLLGSTTKIGDAIVLGMITQLKEGKFFLEDPTGTVQLDLSKAQFHSGLYTEACFVLAEGWFEDQVFHVNAFGFPPTEPSSTTRAYYGNINFFGGPSNTSVKTSAKLKQLEEENKDAMFVFLSDVWLDQVEVLEKLRIMFAGYSPAPPTCFILCGNFSSAPYGKNQVQALKDSLKTLADIICEYPDIHQSSRFVFVPGPEDPGFGSILPRPPLAESITNEFRQRVPFSVFTTNPCRIQYCTQEITVFREDLVNKMCRNCVRFPSSNLAIPNHFVKTILSQGHLTPLPLYVCPVYWAYDYALRVYPVPDLLVIADKYDPFTTTNTECLCINPGSFPRSGFSFKVFYPSNKTVEDSKLQGF [POLE2] | 0.148 | 50 | -0.129 | 49.6 |
| MAQEEEDVRDYNLTEEQKAIKAKYPPVNRKYEYLDHTADVQLHAWGDTLEEAFEQCAMAMFGYMTDTGTVEPLQTVEVETQGDDLQSLLFHFLDEWLYKFSADEFFIPREVKVLSIDQRNFKLRSIGWGEEFSLSKHPQGTEVKAITYSAMQVYNEENPEVFVIIDI [ZBTB8OS] | 0.153 | 52.6 | 0.0908 | 53.1 |
